Experiments:
[1] = IP, p517 Western blot, IBMX/Fsk stimulation; conditions: glycan gained; control: no OGT overexpression
[2] = IP, p-Ser Western blot, IBMX/Fsk-treated HeLa; conditions: glycan gained; control: no OGT overexpression
[3] = Western blot of PLIN1 in iWAT; conditions: glycan lost; control: WT mice
[4] = p517 Western blot, fat of 6 h fasted mice; conditions: glycan lost; control: WT mice
[5] = p492/p517 immunofluorescence, IBMX/Fsk-treated primary eWAT adipocytes; conditions: glycan lost; control: WT adipocytes
[6] = IP of endogenous PLIN1, p517 Western blot; conditions: glycan gained; control: WT mice

B1: perilipin 1 (PLIN1): OGT overexpression (protein)
parent chain: MSMNKGPTLLDGDLPEQENVLQRVLQLPVVSGTCECFQKTYNSTKEAHPLVASVCNAYEKGVQGASNLAAWSMEPVVRRLSTQFTAANELACRGLDHLEEKIPALQYPPEKIASELKGTISTRLRSARNSISVPIASTSDKVLGATLAGCELALGMAKETAEYAANTRVGRLASGGADLALGSIEKVVEFLLPPDKESAPSSGRQRTQKAPKAKPSLVRRVSTLANTLSRHTMQTTAWALKQGHSLAMWIPGVAPLSSLAQWGASAAMQVVSRRQSEVRVPWLHNLAASQDESHDDQTDTEGEETDDEEEEEESEAEENVLREVTALPNPRGLLGGVVHTVQNTLRNTISAVTWAPAAVLGTVGRILHLTPAQAVSSTKGRAMSLSDALKGVTDNVVDTVVHYVPLPRLSLMEPESEFRDIDNPSAEAERKGSGARPASPESTPRPGQPRGSLRSVRGLSAPSCPGLDDKTEASARPGFLAMPREKPARRVSDSFFRPSVMEPILGRAQYSQLRKKS
[1]
  other: PLIN1 phosphorylation: abolishes
[2]
  other: PLIN1 phosphorylation: decreases

B2: perilipin 1 (PLIN1): OGT AKO (protein)
parent chain: MSMNKGPTLLDGDLPEQENVLQRVLQLPVVSGTCECFQKTYNSTKEAHPLVASVCNAYEKGVQGASNLAAWSMEPVVRRLSTQFTAANELACRGLDHLEEKIPALQYPPEKIASELKGTISTRLRSARNSISVPIASTSDKVLGATLAGCELALGMAKETAEYAANTRVGRLASGGADLALGSIEKVVEFLLPPDKESAPSSGRQRTQKAPKAKPSLVRRVSTLANTLSRHTMQTTAWALKQGHSLAMWIPGVAPLSSLAQWGASAAMQVVSRRQSEVRVPWLHNLAASQDESHDDQTDTEGEETDDEEEEEESEAEENVLREVTALPNPRGLLGGVVHTVQNTLRNTISAVTWAPAAVLGTVGRILHLTPAQAVSSTKGRAMSLSDALKGVTDNVVDTVVHYVPLPRLSLMEPESEFRDIDNPSAEAERKGSGARPASPESTPRPGQPRGSLRSVRGLSAPSCPGLDDKTEASARPGFLAMPREKPARRVSDSFFRPSVMEPILGRAQYSQLRKKS
[3]
  expression_or_secretion: no change

B3: perilipin 1 (PLIN1): OGT AKO (eWAT) (protein)
parent chain: MSMNKGPTLLDGDLPEQENVLQRVLQLPVVSGTCECFQKTYNSTKEAHPLVASVCNAYEKGVQGASNLAAWSMEPVVRRLSTQFTAANELACRGLDHLEEKIPALQYPPEKIASELKGTISTRLRSARNSISVPIASTSDKVLGATLAGCELALGMAKETAEYAANTRVGRLASGGADLALGSIEKVVEFLLPPDKESAPSSGRQRTQKAPKAKPSLVRRVSTLANTLSRHTMQTTAWALKQGHSLAMWIPGVAPLSSLAQWGASAAMQVVSRRQSEVRVPWLHNLAASQDESHDDQTDTEGEETDDEEEEEESEAEENVLREVTALPNPRGLLGGVVHTVQNTLRNTISAVTWAPAAVLGTVGRILHLTPAQAVSSTKGRAMSLSDALKGVTDNVVDTVVHYVPLPRLSLMEPESEFRDIDNPSAEAERKGSGARPASPESTPRPGQPRGSLRSVRGLSAPSCPGLDDKTEASARPGFLAMPREKPARRVSDSFFRPSVMEPILGRAQYSQLRKKS
[4]
  other: PLIN1 phosphorylation: increases

B4: perilipin 1 (PLIN1): OGT knockout (protein)
parent chain: MSMNKGPTLLDGDLPEQENVLQRVLQLPVVSGTCECFQKTYNSTKEAHPLVASVCNAYEKGVQGASNLAAWSMEPVVRRLSTQFTAANELACRGLDHLEEKIPALQYPPEKIASELKGTISTRLRSARNSISVPIASTSDKVLGATLAGCELALGMAKETAEYAANTRVGRLASGGADLALGSIEKVVEFLLPPDKESAPSSGRQRTQKAPKAKPSLVRRVSTLANTLSRHTMQTTAWALKQGHSLAMWIPGVAPLSSLAQWGASAAMQVVSRRQSEVRVPWLHNLAASQDESHDDQTDTEGEETDDEEEEEESEAEENVLREVTALPNPRGLLGGVVHTVQNTLRNTISAVTWAPAAVLGTVGRILHLTPAQAVSSTKGRAMSLSDALKGVTDNVVDTVVHYVPLPRLSLMEPESEFRDIDNPSAEAERKGSGARPASPESTPRPGQPRGSLRSVRGLSAPSCPGLDDKTEASARPGFLAMPREKPARRVSDSFFRPSVMEPILGRAQYSQLRKKS
[5]
  other: PLIN1 phosphorylation: increases

B5: perilipin 1 (PLIN1): OGT AKO (iWAT) (protein)
parent chain: MSMNKGPTLLDGDLPEQENVLQRVLQLPVVSGTCECFQKTYNSTKEAHPLVASVCNAYEKGVQGASNLAAWSMEPVVRRLSTQFTAANELACRGLDHLEEKIPALQYPPEKIASELKGTISTRLRSARNSISVPIASTSDKVLGATLAGCELALGMAKETAEYAANTRVGRLASGGADLALGSIEKVVEFLLPPDKESAPSSGRQRTQKAPKAKPSLVRRVSTLANTLSRHTMQTTAWALKQGHSLAMWIPGVAPLSSLAQWGASAAMQVVSRRQSEVRVPWLHNLAASQDESHDDQTDTEGEETDDEEEEEESEAEENVLREVTALPNPRGLLGGVVHTVQNTLRNTISAVTWAPAAVLGTVGRILHLTPAQAVSSTKGRAMSLSDALKGVTDNVVDTVVHYVPLPRLSLMEPESEFRDIDNPSAEAERKGSGARPASPESTPRPGQPRGSLRSVRGLSAPSCPGLDDKTEASARPGFLAMPREKPARRVSDSFFRPSVMEPILGRAQYSQLRKKS
[4]
  other: PLIN1 phosphorylation: no change

B6: perilipin 1 (PLIN1): OGT AKI (adipose rOGT knockin) (protein)
parent chain: MSMNKGPTLLDGDLPEQENVLQRVLQLPVVSGTCECFQKTYNSTKEAHPLVASVCNAYEKGVQGASNLAAWSMEPVVRRLSTQFTAANELACRGLDHLEEKIPALQYPPEKIASELKGTISTRLRSARNSISVPIASTSDKVLGATLAGCELALGMAKETAEYAANTRVGRLASGGADLALGSIEKVVEFLLPPDKESAPSSGRQRTQKAPKAKPSLVRRVSTLANTLSRHTMQTTAWALKQGHSLAMWIPGVAPLSSLAQWGASAAMQVVSRRQSEVRVPWLHNLAASQDESHDDQTDTEGEETDDEEEEEESEAEENVLREVTALPNPRGLLGGVVHTVQNTLRNTISAVTWAPAAVLGTVGRILHLTPAQAVSSTKGRAMSLSDALKGVTDNVVDTVVHYVPLPRLSLMEPESEFRDIDNPSAEAERKGSGARPASPESTPRPGQPRGSLRSVRGLSAPSCPGLDDKTEASARPGFLAMPREKPARRVSDSFFRPSVMEPILGRAQYSQLRKKS
[6]
  other: PLIN1 phosphorylation: decreases

Source: publication PMC6954210
